Experimental data taken from paper PMC6572788 (Nature Communications, 2019).

B1: nanobody T4 (VHH)
VHH: QVQLQESGGGLVQAGGSLRLSCAASGSTFAIIAMGWYRQAPGKQRELVAVISTGDTRYADSVKGRFTISRDNAKNTVYLQMDSLRPEDTAVYYCNAAVQVRDYRNYWGQGTQVTVSS
notes: pXAP100 vector, C-terminal His6-cMyc tag; source: E. coli BL21(DE3) pLysS, periplasmic extract, purified (Ni-NTA, SEC); not shown: His6, C-terminal, kept; cMyc, C-terminal, kept
B2: nanobody T27 (VHH)
VHH: QVQLQESGGGLEQPGGSLRLSCATSGVIFGINAMGWYRQAPGKQRELVATFTSGGSTNYADFVEGRFTISRDNAKNTVYLQMNGLRPEDTAVYYCHATVVVSRYGLTYDYWGQGTQVTVSS
notes: as for B1
B3: nanobody T2a (VHH)
VHH: QVQLQESGGGLVQAGGSLRLSCAASGSIFRIDAMGWYRQAPGKQRELVAHSTSGGSTDYADSVKGRFTISRDNAKNTVYLQMNSLKPEDTAVYYCNADVRTRWYASNNYWGQGTQVTVSS
notes: as for B1
B4: nanobody T8 (VHH)
VHH: QVQLQESGGGLVQPGGSLRLSCAASGSTSSINAMGWYRQAPGKQREPVAISSSGGDTRYAEPVKGRFTISRDNAQNKVYLQMNSLKPEDTAVYYCWLNWGRTSVNSWGQGTQVTVSS
notes: as for B1
B5: nanobody G3a (VHH)
VHH: QVQLQESGGGLVQAGGSLRLSCTASGRAFSWYVMGWFRQAPGKEREFVATVSGNGSRRDYADSVKGRFTISRDNAKNTVYLQMNSLKPEDTAVYYCAASSTYYYTDPEKYDYWGQGTQVTVSS
notes: as for B1
B6: nanobody D12 (VHH)
VHH: QVQLQESGGGLVQAGSSLRLACAATGSIRSINNMGWYRQAPGKQRGMVAIITRVGNTDYADSVKGRFTISRDNAKNTVYLQMNSLKPEDTATYYCHAEITEQSRPFYLTDDYWGQGTQVTVSS
notes: as for B1

Target: T1, 2PT-NBD1 (human CFTR NBD1, residues 387–646, S492P/A534P/I539T) (Homo sapiens (human), CFTR M470 allele …, S492P | A534P | I539T, biotin (in the ELISA; site not stated))
T1 construct: In the crystals treated with papain (6GJU) or subtilisin (6GJQ) parts of the domain were cleaved off (6GJU lacks residues 389–447); source: E. coli BL21(DE3) pLysS, purified (HisTrap, Ulp1 cleavage, Superdex 200); not shown: His6, N-terminal, cleaved; SUMO, N-terminal, cleaved
T1 sequence (P13569 387-646 V470M/S492P/A534P/I539T): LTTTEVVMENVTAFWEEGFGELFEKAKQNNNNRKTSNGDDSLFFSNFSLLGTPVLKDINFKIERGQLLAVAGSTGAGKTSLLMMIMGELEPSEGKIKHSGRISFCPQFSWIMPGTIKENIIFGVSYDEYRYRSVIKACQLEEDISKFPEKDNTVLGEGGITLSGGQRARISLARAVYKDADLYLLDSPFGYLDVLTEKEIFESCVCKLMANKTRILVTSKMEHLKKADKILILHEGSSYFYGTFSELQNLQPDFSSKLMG
Assay: ITC; nanobody titrated into 2PT-NBD1; NanoITC, 20 °C; 20 mM Hepes pH 7.5, 150 mM NaCl, 10% glycerol, 10% ethylene glycol, 2 mM ATP, 3 mM MgCl2; one-site binding model
Conditions: both partners purified

Kd [nM] | stoichiometry N | Binder
37.9 | 1 | B1
25 | 1 | B2
54 | 1 | B3
39 | 1 | B4
1100 | 1 | B5

Target: T2, human wt-CFTR stably overexpressed in BHK-21 cells (human, UniProt P13569)
T2 construct: human CFTR, wild type, full length, in BHK-21 cells; also called cellular CFTR; FL-CFTR; source: BHK-21 cells, stably overexpressing; in permeabilised cells (flow cytometry) and solubilised with 1% DMNG (pull-down)
T2 sequence (P13569 whole entry): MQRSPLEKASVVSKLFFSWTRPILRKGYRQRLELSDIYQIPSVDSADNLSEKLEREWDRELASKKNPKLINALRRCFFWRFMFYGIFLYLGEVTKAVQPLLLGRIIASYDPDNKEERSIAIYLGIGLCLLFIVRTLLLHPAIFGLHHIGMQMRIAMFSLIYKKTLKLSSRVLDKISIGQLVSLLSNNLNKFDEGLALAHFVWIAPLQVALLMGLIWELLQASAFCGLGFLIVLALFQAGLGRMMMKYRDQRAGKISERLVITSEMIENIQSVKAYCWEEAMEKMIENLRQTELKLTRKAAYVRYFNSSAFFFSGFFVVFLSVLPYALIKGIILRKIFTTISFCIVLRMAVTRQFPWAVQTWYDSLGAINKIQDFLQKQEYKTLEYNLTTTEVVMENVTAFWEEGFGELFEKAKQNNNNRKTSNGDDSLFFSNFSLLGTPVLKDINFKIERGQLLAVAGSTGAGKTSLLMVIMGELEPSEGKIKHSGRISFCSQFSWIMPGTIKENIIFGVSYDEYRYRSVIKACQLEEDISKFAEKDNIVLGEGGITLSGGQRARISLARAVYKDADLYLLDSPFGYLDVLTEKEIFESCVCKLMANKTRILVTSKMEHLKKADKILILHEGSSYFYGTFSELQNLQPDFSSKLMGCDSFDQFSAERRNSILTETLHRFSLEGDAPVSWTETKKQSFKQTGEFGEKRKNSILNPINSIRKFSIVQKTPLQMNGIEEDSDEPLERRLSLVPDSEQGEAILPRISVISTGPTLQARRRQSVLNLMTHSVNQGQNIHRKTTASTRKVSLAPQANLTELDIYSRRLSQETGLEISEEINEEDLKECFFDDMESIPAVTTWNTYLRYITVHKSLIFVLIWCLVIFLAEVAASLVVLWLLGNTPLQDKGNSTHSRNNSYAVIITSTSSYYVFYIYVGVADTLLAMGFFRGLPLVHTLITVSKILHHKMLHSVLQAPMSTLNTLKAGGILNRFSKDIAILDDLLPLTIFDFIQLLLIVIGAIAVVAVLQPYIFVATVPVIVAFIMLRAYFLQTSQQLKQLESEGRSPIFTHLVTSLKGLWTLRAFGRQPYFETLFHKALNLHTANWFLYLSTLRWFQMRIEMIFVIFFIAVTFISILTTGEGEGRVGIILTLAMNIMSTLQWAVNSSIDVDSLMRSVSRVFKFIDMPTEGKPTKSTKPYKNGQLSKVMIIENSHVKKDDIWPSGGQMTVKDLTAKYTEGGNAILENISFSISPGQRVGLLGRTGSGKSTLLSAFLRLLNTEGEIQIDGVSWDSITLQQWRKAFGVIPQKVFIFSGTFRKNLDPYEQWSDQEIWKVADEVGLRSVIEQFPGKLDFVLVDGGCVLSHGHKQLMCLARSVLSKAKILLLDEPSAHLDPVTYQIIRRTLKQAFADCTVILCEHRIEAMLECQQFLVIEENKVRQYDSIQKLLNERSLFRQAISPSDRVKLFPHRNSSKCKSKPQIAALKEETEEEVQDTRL
Assay: flow cytometry on cells; BHK-21 cells stably overexpressing human wt-CFTR or 2PT-F508del-CFTR, permeabilised with 0.01% β-DDM on ice; 50 µg ml^−1 nanobody; detection by anti-His6 or anti-cMyc antibody and anti-mouse-Alexa Fluor 488
Conditions: one partner purified

binding result | Binder
binds | B1
binds | B2
binds | B6
binds | B3
binds | B4
binds | B5

Target: T1, 2PT-NBD1 (human CFTR NBD1, residues …)
Assay: cell-based or functional assay
Conditions: not given

Binder | increase of the apparent Tm of 2PT-NBD1 by thermal shift assay (DSF; 10 µM NBD1, 30 µM nanobody) [°C]
B1 | 12.5
B2 | 11.9
B6 | 13.8
B3 | 11.2
B4 | 9.1
